Experimental data as given in patent US20110123546A1 (published 2011).

B1: VHH15 (VHH)
VHH: QVQGAGLWGGLVQLGGSLRLSCAASGFTFGYYAMSWVRQAPGKGLEWVSYINDNGGYTAYTDPVKGRFTISRDNAKNILYLHMNNLKPEDTAVYFCAKWGTDAVSSSRYKSHDYDSRGPGTQVTVSS
B2: VHH2 (VHH)
VHH: QVQLQESGGGLVQAGDSLRLSCAASGRTFSSYAMGWFRQAPGKEREFVAAVSSSNSPWYGDSIKGRSTIHRDNAKNTVYLYMNNLKPEDTAVYYCAADLEGERLGESSEYDYWGQGTQVTVSS
B3: VHH1 (VHH)
VHH: QVQLQDSGGGLVQAGDRLSLSCAASGRTFSSYDMAWFRQAPGKEREFVAAITTSEGTWYGDAGKGRFTIARVNAKNTVYLHMNRLKPEDTAVYYCAASNQGGSLQISTNYNYWGQGTQVTVSS
B4: VHH3 (VHH)
VHH: QVQLQESGGGLVQPGGSLRLSCAASGFTFKYYAMSWVRQAPGKGLEWVSYINDNGGYTDYSDSVKGRFTISRDNAKNTLYLHMNRLKPEDTAVYFCAKWDTDAVSSSRYKTHNGDIRGPGTQVTVSS

The binders below were run against rhesus rotavirus strain RRV (assay: cell-based or functional assay).
With B1 the “% infection of MA104 cells relative to irrelevant VHH (NSP4 Western blot densitometry)” value was 40%.
B2 was tested, and the “% infection of MA104 cells relative to irrelevant VHH (NSP4 Western blot densitometry)” value was 40%.
B3 was tested, and the “% infection of MA104 cells relative to irrelevant VHH (NSP4 Western blot densitometry)” value was 40%.
In the case of B4, the “% infection of MA104 cells relative to irrelevant VHH (NSP4 Western blot densitometry)” value is reported as 40%.
